Results taken from IntAct's records for PubMed 29039417.

B1: BBSome complex member BBS4 (Homo sapiens), Q96RK4 (parent)
chain: MAEERVATRTQFPVSTESQKPRQKKAPEFPILEKQNWLIHLHYIRKDYEACKAVIKEQLQETQGLCEYAIYVQALIFRLEGNIQESLELFQTCAVLSPQSADNLKQVARSLFLLGKHKAAIEVYNEAAKLNQKDWEISHNLGVCYIYLKQFNKAQDQLHNALNLNRHDLTYIMLGKIHLLEGDLDKAIEVYKKAVEFSPENTELLTTLGLLYLQLGIYQKAFEHLGNALTYDPTNYKAILAAGSMMQTHGDFDVALTKYRVVACAVPESPPLWNNIGMCFFGKKKYVAAISCLKRANYLAPFDWKILYNLGLVHLTMQQYASAFHFLSAAINFQPKMGELYMLLAVALTNLEDIENAKRAYAEAVHLDKCNPLVNLNYAVLLYNQGEKKNALAQYQEMEKKVSLLKDNSSLEFDSEMVEMAQKLGAALQVGEALVWTKPVKDPKSKHQTTSTSKPASFQQPLGSNQALGQAMSSAAAYRTLPSGAGGTSQFTKPPSLPLEPEPAVESSPTETSEQIREK
partner: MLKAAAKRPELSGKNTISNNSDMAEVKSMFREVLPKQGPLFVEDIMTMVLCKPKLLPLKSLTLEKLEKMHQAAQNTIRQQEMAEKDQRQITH
B2: BBSome complex member BBS2 (Homo sapiens), Q9BXC9 (parent)
chain: MLLPVFTLKLRHKISPRMVAIGRYDGTHPCLAAATQTGKVFIHNPHTRNQHVSASRVFQSPLESDVSLLSINQAVSCLTAGVLNPELGYDALLVGTQTNLLAYDVYNNSDLFYREVADGANAIVLGTLGDISSPLAIIGGNCALQGFNHEGSDLFWTVTGDNVNSLALCDFDGDGKKELLVGSEDFDIRVFKEDEIVAEMTETEIVTSLCPMYGSRFGYALSNGTVGVYDKTSRYWRIKSKNHAMSIHAFDLNSDGVNELITGWSNGKVDARSDRTGEVIFKDNFSSAIAGVVEGDYRMDGHIQLICCSVDGEIRGYLPGTAEMRGNLMDTSAEQDLIRELSQKKQNLLLELRNYEENAKAELASPLNEADGHRGIIPANTRLHTTLSVSLGNETQTAHTELRISTSNDTIIRAVLIFAEGIFTGESHVVHPSIHNLSSSICIPIVPPKDVPVDLHLKAFVGYRSSTQFHVFESTRQLPRFSMYALTSLDPASEPISYVNFTIAERAQRVVVWLGQNFLLPEDTHIQNAPFQVCFTSLRNGGHLHIKIKLSGEITINTDDIDLAGDIIQSMASFFAIEDLQVEADFPVYFEELRKVLVKVDEYHSVHQKLSADMADHSNLIRSLLVGAEDARLMRDMKTMKSRYMELYDLNRDLLNGYKIRCNNHTELLGNLKAVNQAIQRAGRLRVGKPKNQVITACRDAIRSNNINTLFKIMRVGTASS
partner: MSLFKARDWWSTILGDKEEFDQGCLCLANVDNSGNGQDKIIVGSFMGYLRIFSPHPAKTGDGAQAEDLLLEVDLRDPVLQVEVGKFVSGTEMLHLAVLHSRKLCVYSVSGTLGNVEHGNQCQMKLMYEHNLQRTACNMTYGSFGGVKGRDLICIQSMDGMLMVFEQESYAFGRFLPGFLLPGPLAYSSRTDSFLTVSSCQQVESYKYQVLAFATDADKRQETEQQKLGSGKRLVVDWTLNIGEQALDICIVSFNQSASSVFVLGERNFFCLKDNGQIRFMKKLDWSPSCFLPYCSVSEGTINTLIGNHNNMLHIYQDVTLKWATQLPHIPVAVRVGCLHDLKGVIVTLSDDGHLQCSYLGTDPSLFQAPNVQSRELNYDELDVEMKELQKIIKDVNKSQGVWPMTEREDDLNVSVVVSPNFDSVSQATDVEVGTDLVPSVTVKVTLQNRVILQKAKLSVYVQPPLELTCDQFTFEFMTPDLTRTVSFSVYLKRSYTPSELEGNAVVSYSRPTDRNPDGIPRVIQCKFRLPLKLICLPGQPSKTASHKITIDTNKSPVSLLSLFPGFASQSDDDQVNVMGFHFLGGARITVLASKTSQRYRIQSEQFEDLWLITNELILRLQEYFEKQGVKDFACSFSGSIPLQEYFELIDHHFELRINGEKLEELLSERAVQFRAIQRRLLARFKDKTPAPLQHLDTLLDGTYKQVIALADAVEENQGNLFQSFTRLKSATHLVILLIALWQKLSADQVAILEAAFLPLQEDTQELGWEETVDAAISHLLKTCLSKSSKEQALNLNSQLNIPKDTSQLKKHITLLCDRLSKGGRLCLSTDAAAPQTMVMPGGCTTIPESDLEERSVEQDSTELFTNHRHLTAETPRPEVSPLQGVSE

Variants of: B1
Settings: with bbip1_human BBIP1, A8MTZ0

Row | Variant | effect of a mutation on the interaction
1 | MAEERVATRTQFPVSTESQKPRQKKAPEFPILEKQNWLIHLHYIRKDYEACKAVIKEQLQETQGLCEYAIYVQALIFRLEGNIQESLELFQTCAVLSPQSADNLKQVARSLFLLGKHKAAIEVYNEAAKLNQKDWEISHNLGVCYIYLKQFNKAQDQLHNALNLNRHDLTYIMLGKIHLLEGDLDKAIEVYKKAVEFSPENTELLTTLGLLYLQLGIYQKAFEHLGNALTYDPTNYKAILAAGSMMQTHGDFDVALTKYRVVACAVPESPPLWNNIGMCFFGKKKYVAAISCLKRANYLAPFDWKILYNLGLVHLTMQQYASAFHFLSAAINFQPKMGELYMLLAVALTNLEDIENAKRAYAEAVHLDKCNPLVNLNYAVLLYNQGEKKNALAQYQEMEKKVSLLKDNSSLEFDSEMVEMAQKLGAALQVGEALVWTKPVKDPKSKHQTTSTSKPASFQQPLGSNQELGQAMSSAAAYRTLPSGAGGTSQFTKPPSLPLEPEPAVESSPTETSEQIREK [A467E] | with no effect
2 | MAEERVATRTQFPVSTESQKPRQKKAPEFPILEKQNWLIHLHYIRKDYEACKAVIKEQLQETQGLCEYAIYVQALIFRLEGNIQESLELFQTCAVLSPQSADNLKQVARSLFLLGKHKAAIEVYNEAAKLNQKDWEISHNLGVCYIYLKQFNKAQDQLHNALNLNRHDLTYIMLGKIHLLEGDLDKAIEVYKKAVEFSPENTELLTTLGLLYLQLGIYQKAFEHLGNALTYDPTNYKAILAAGSMMQTHGDFDVALTKYRVVACAVPESPPLWNNIGMCFFGKKKYVAAISCLKRANYLAPFDWKILYNLGLVHLTMQQYASAFHFLSAAINFQPKMGELYMLLAVALTNLEDIENAKRAYAEAVHLDKCNPLVNLNYAVLLYNQGEKKNALAQYQEMEKKASLLKDNSSLEFDSEMVEMAQKLGAALQVGEALVWTKPVKDPKSKHQTTSTSKPASFQQPLGSNQALGQAMSSAAAYRTLPSGAGGTSQFTKPPSLPLEPEPAVESSPTETSEQIREK [V402A] | with no effect
3 | MAEERVATRTQFPVSTESQKPRQKKAPEFPILEKQNWLIHLHYIRKDYEACKAVIKEQLQETQGLCEYAIYVQALIFRLEGNIQESLELFQTCAVLSPQSADNLKQVARSLFLLGKHKAAIEVYNEAAKLNQKDWEISHNLGVCYIYLKQFNKAQDQLHNALNLNRHDLTYIMLGKIHLLEGDLDKAIEVYKKAVEFSPENTELLTTLGLLYLQLGIYQKAFEHLGNALTYDPTNYKAILAAGSMMQTHGDFDVALTKYRVVACAVPESPPLWNNIGMCFFGKKKYVAAISCLKRANYLAPFDWKILYNLGLVHLTMQQYASAFHKLSAAINFQPKMGELYMLLAVALTNLEDIENAKRAYAEAVHLDKCNPLVNLNYAVLLYNQGEKKNALAQYQEMEKKVSLLKDNSSLEFDSEMVEMAQKLGAALQVGEALVWTKPVKDPKSKHQTTSTSKPASFQQPLGSNQALGQAMSSAAAYRTLPSGAGGTSQFTKPPSLPLEPEPAVESSPTETSEQIREK [F326K] | with no effect
4 | MAEERVATRTQFPVSTESQKPRQKKAPEFPILEKQNWLIHLHYIRKDYEACKAVIKEQLQETQGLCEYAIYVQALIFRLEGNIQESLELFQTCAVLSPQSADNLKQVARSLFLLGKHKAAIEVYNEAAKLNQKDWEISHNLGVCYIYLKQFNKAQDQLHNALNLNRHDLTYIMLGKIHLLEGDLDKAIEVYKKAVEFSPENTELLTTLGLLYLQLGIYQKAFEHLGNALTYDPTNYKAILAAGSMMQTHGDFDVALTKYRVVACAVPESPPLWNNIGMCFFGKKKYVAAISCLKRANYLAPFDWKILYNLGLVHLTMQQYASAFHFLSAAINFQPKMGELYMLLAVALTNLEDIENAKRAYAEAVHLDKCNPLVNLNYAVLLYNQGEKKNALAQYQEMEKKVSLLKDNSSLEFDSEMVEMAQKLGAALQVGEALVWTKPKKDPKSKHQTTSTSKPASFQQPLGSNQALGQAMSSAAAYRTLPSGAGGTSQFTKPPSLPLEPEPAVESSPTETSEQIREK [V440K] | with no effect
5 | MAEERVATRTQFPVSTESQKPRQKKAPEFPILEKQNWLIHLHYIRKDYEACKAVIKEQLQETQGLCEYAIYVQALIFRLEGNIQESLELFQTCAVLSPQSADNLKQVARSLFLLGKHKAAIEVYNEAAKLNQKDWEISHNLGVCYIYLKQFNKAQDQLHNALNLNRHDLTYIMLGKIHLLEGDLDKAIEVYKKAVEFSPENTELLTTLGLLYLQLGIYQKAFEHLGNALTYDPTNYKAILAAGSMMQTHGDFDVALTKYRVVACAVPESPPLWNNIGMCFFGKKKYVAAISCLKRANYLAPFDWKILYNLGLVHLTMQKYASAFHFLSAAINFQPKMGELYMLLAVALTNLEDIENAKRAYAEAVHLDKCNPLVNLNYAVLLYNQGEKKNALAQYQEMEKKVSLLKDNSSLEFDSEMVEMAQKLGAALQVGEALVWTKPVKDPKSKHQTTSTSKPASFQQPLGSNQALGQAMSSAAAYRTLPSGAGGTSQFTKPPSLPLEPEPAVESSPTETSEQIREK [Q319K] | with no effect
6 | MAEERVATRTQFPVSTESQKPRQKKAPEFPILEKQNWLIHLHYIRKDYEACKAVIKEQLQETQGLCEYAIYVQALIFRLEGNIQESLELFQTCAVLSPQSADNLKQVARSLFLLGKHKAAIEVYNEAAKLNQKDWEISHNLGVCYIYLKQFNKAQDQLHNALNLNRHDLTYIMLGKIHLLEGDLDKAIEVYKKAVEFSPENTELLTTLGLLYLQLGIYQKAFEHLGNALTYDPTNYKAILAAGSMMQTHGDFDVALTKYRVVACAVPESPPLWNNIGMCFFGKKKYVAAISCLKRANYLAPFDWKILYNLGLVHLTMQQYASAFHFLSAAINFQPKMGELYMLLAVALTNLEDIENAKRAYAEAVHLDKCNPLVNLNYAVLLYNQGEKKNALAQYQEMEKKVSLLKDNSSLEFDSEMVEMAQKLGAALQVGEALVWTKPVKDPKSKHQTTSTSKPASAQQPLGSNQALGQAMSSAAAYRTLPSGAGGTSQFTKPPSLPLEPEPAVESSPTETSEQIREK [F458A] | with no effect

Variants of: B1
Settings: with bbip1_human BBIP1, A8MTZ0
Remark: another data set of the same source

Row | Variant | effect of a mutation on the interaction
7 | MAEERVATRTQFPVSTESQKPRQKKAPEFPILEKQNWLIHLHYIRKDYEACKAVIKEQLQETQGLCEYAIYVQALIFRLEGNIQESLELFQTCAVLSPQSADNLKQVARSLFLLGKHKAAIEVYNEAAKLNQKDWEISHNLGVCYIYLKQFNKAQDQLHNALNLNRHDLTYIMLGKIHLLEGDLDKAIEVYKKAVEFSPENTELLTTLGLLYLQLGIYQKAFEHLGNALTYDPTNYKAILAAGSMMQTHGDFDVALTKYRVVACAVPESPPLWNNIGMCFFGKKKYVAAISCLKRANYLAPFDWKILYNLGLVHLTMQQYASAFHFLSAAINFQPKMGELYMLLAVALTNLEDIENAKRAYAEAVHLDKCNPLVNLYYAVLLYNQGEKKNALAQYQEMEKKVSLLKDNSSLEFDSEMVEMAQKLGAALQVGEALVWTKPVKDPKSKHQTTSTSKPASFQQPLGSNQALGQAMSSAAAYRTLPSGAGGTSQFTKPPSLPLEPEPAVESSPTETSEQIREK [N377Y] | disrupting interaction strength
8 | MAEERVATRTQFPVSTESQKPRQKKAPEFPILEKQNWLIHLHYIRKDYEACKAVIKEQLQETQGLCEYAIYVQALIFRLEGNIQESLELFQTCAVLSPQSADNLKQVARSLFLLGKHKAAIEVYNEAAKLNQKDWEISHNLGVCYIYLKQFNKAQDQLHNALNLNRHDLTYIMLGKIHLLEGDLDKAIEVYKKAVEFSPENTELLTTLGLLYLQLGIYQKAFEHLGNALTYDPTNYKAILAAGSMMQTHGDFDVALTKYRVVACAVPESPPLWNNIGMCFFGKKKYVAAISCLKRANYLAPFDWKILYNLGLVHLTMQQYASAFHFPSAAINFQPKMGELYMLLAVALTNLEDIENAKRAYAEAVHLDKCNPLVNLNYAVLLYNQGEKKNALAQYQEMEKKVSLLKDNSSLEFDSEMVEMAQKLGAALQVGEALVWTKPVKDPKSKHQTTSTSKPASFQQPLGSNQALGQAMSSAAAYRTLPSGAGGTSQFTKPPSLPLEPEPAVESSPTETSEQIREK [L327P] | disrupting interaction strength

Variants of: B2
Settings: with pthb1_human BBS9, Q3SYG4

Row | Variant | effect of a mutation on the interaction
9 | A719E | with no effect
10 | A719K | with no effect
11 | S721K | with no effect
12 | S721A | with no effect
13 | S721E | with no effect
14 | I707K | with no effect
15 | I707E | with no effect
16 | I707A | with no effect
17 | T718A | with no effect
18 | T718K | with no effect
19 | T718E | with no effect
20 | I713K | with no effect
21 | I713E | with no effect
22 | I713A | with no effect
23 | K712E | with no effect
24 | K712A | with no effect
25 | V716E | with no effect
26 | V716K | with no effect
27 | V716A | with no effect
28 | G717K | with no effect
29 | G717A | with no effect
30 | G717E | with no effect
31 | R703K | with no effect
32 | R703A | with no effect
